From patent US6693166 (HONG KONG UNIVERSITY OF SCIENCE AND TECHNOLOGY, dated 2004)

Biological target: T1, GST-Cdk5.GST-Nck5a complex (Homo sapiens (Human), UniProt Q00535 1-292; Q15078 99-307)
T1 construct: also called Cdk5/Nck5a complex; Cdk5.Nck5a complex
Experiment: steady state kinase kinetics with histone H1 peptide as substrate, Dixon plot; noncompetitive with respect to the substrate
Procedure: Peptide Inhibition of Cdk5 and Cdk2 Kinase Activity—Cdk5 kinase activity was assayed essentially as described previously, except that for each Cdk5 kinase reaction 1 µg of GST-Cdk5 was reconstituted with 2 µg of GST-Nck5a, and 1 µg of GST-Cdk2 was mixed with 3 µg of cyclin A-H6 in Cdk2 assays. The reconstituted complexes were added, in duplicate, to an assay mixture containing 30 mM MOPS, pH 7.4, 10 mM MgCl_2, 40 µM of the histone H1 peptide, 50 µM [γ-^32P]ATP, and various concentrations of various peptides at 30° C. for 30 min before measuring the Cdk5 and Cdk2 kinase activities.
Steady State Kinetic Experiments—All assay conditions were the same as in the inhibition assay described above, except that the reaction time was kept at 15 min so that the product formed was less than 5% of the total substrate concentration used. To determine suitable concentrations of the substrate and the inhibitor for the steady state kinetic experiments, the K_m value of GST-Cdk5.GST-Nck5a complex and a concentration-dependent inhibition profile of the enzyme by the α_N peptide were determined. […]
Kinetic Analysis of Cdk5 Inhibition by the α_N Peptide—We also analyzed the kinetic properties of the α_N peptide with respect to the kinase substrate, the histone H1 peptide.

Ki: ~25 µM
B1: synthetic 28-residue Nck5a peptide corresponding to Ala146 to Asp173 of Nck5a (peptide)
peptide: ASTSELLRCLGEFLCRRCYRLKHLSPTD
notes: Chemically synthesised (Fmoc), purity above 95%; Gln145 of the recombinant 29-residue fragment was left out; also called αN peptide
